Experimental data taken from the DeepSol protein solubility set.

Assay: soluble on expression in E. coli; label from the status in PepcDB or PDB records

Sequence | soluble on expression in E. coli
MSLGLINPDFQTLPELFTSVFSHFKGQPDKAPIARKINGAYSPISYDSLAEDCRHFAAYLKERGIEPGDRVAILSENRPGWYLADIAILSLGATDVPLYPSLPPNQIEYILNNCSAKGIIVSNMLQLGKILSIWPKLPELNMVIVMNKLDEPVEDVIDLSQAKTEGKKVLEAKPWLLDGIKSNPDDVATLIYTSGTTGLPKGVMLTHRNICENVKSCSTVIRIDQTDSSLSFLPLSHAYERTGGYYLMFACGARINLAESVETISLNISEAKPTIIFTVPRLFDRMKASILKSVTSEGGVKEKIFFWAVSTGEKYHKQLATGKVSPLLAVQHNLADKLVYSKIRKKFGGKLRYFVSGGAALPQKTGEFFQSIGITILEGFGLTETSPVTNVNRPEKVKFGTVGLPVKNVEVKIAPDGEIMLKGPNIMKGYWKDEAASAEVLRDGWLYTGDIGEVDSEGYLKITDRKKHIIVTSGGKNIAPLQIENLILDSPYVDQAMIVGEKRPFLIALIVPDFLKLRDFAAEHQIKASSTKELINTKEVIEVYEKLLKSISRQLATHEKVRKFLLLEEPFSIENGMMTPTLKLKRKEITTKFSAEIDNLYNTLNMVYNTEGHHHHHH | soluble
MSLGMDEKSVAIVFPHHLLEDHPAAGKTSGFILVEDQLFFGDPVFGLRFHKNKLVLHRASMRYYHDHLKSRGLKAEYIQYSPDPHMGYLRDHLEGYDRVYTLELLDHELEARMKKLSMELGLEITEIEAPFIFRRNLMDGYFRDGRFLLRSFYIRERKRLSILMENSRPAGGKWTFDTENRKRMPPDLQVPAPVKLPENEYVQEAKEYVSEKFPDNPGSMDRFNYPEGHHHHHH | soluble
MSLGQKGHKDSLYPCGGTPESSLHEALDQCMTALDLFLTNQFSEALSYLKPRTKESMYHSLTYATILEMQAMMTFDPQDILLAGNMMKEAQMLCQRHRRKSSVTDSFSSLVNRPTLGQFTEEEIHAEVCYAECLLQRAALTFLQDENMVSFIKGGIKVRNSYQTYKELDSLVQSSQYCKGENHPHFEGGVKLGVGAFNLTLSMLPTRILRLLEFVGFSGNKDYGLLQLEEGASGHSFRSVLCVMLLLCYHTFLTFVLGTGNVNIEEAEKLLKPYLNRYPKGAIFLFFAGRIEVIKGNIDAAIRRFEECCEAQQHWKQFHHMCYWELMWCFTYKGQWKMSYFYADLLSKENCWSKATYIYMKAAYLSMFGKEDHKPFGDDEVELFRAVPGLKLKIAGKSLPTEKFAIRKSRRYFSSNPISLPVPALEMMYIWNGYAVIGKQPKLTDGILEIITKAEEMLEKGPENEYSVDDECLVKLLKGLCLKYLGRVQEAEENFRSISANEKKIKYDHYLIPNALLELALLLMEQDRNEEAIKLLESAKQNYKNYSMESRTHFRIQAATLQAKSSLENSSRSMVSSVSEGHHHHHH | soluble
MSLGQNRLELLLFRLDGQQLYGINVFKVREVLQCPQLTLMPKSSPVVCGVANIRGATIPILDLAMATGSGALKDKNSPFVIITEYNTKTQGFLVRSVERIVNMNWEEIHPPPKGTGRDHYLTAVTRVDNQLVEIIDVEKVLAEVAPTPEAISVGVVDVETQSKALSLRVLTVDDSSVARKQVTRCLQTVGVEVVALNDGRQALDYLRKLVDEGKKPEEEFLMMISDIEMPEMDGYTLTAEIRSDPRMQKLHIILHTSLSGVFNQAMVKKVGADDFLAKFRPDDLASRVVDRIKAADISEGHHHHHH | soluble
MSLGQSAQLRSWLQAMPKGGDLHNHLSGSVYAEDYLQWASEDGACVQLDDLSLRAPPCVAGQVPARGLSTRDVALYGRVVDALSMRNHLASPSQPTGHGQFFSTFGKFDAVVRARVADTVAAVLEQAARDRVPYVEIIANPPQMDDAAQRMQALPWHGTDDAANLRELQDALPPLVQAAQRNLADLDAQVRHVLQCDQAQPRAACQVQYRYVPYVLRVLPAPQVFGQMALAHALVAAGGSRAVAVNIVAPEDNPVAVADYARHMAMFRFFAQRYPGVPLSLHAGELTLGLVPPAQLRSHIRQAVDAGARRIGHGVDLPYEDDAQELLQRMRRDQVAVEINLTSNDVILGVTGAAHPLAMYLRAGVPVVLSTDDAGVSRADMTHEYQRAVQEQGIEYPTLKQLARNGLTYSFLPGASLWSANGKAAQACATALQRETDDAGCQAFRQSSEKARLQWQLETDLAQYERMLMEQRKVQTEGHHHHHH | not soluble
MSLGRFQTLDYEIPESMQRSWQDIVNLLAQIADVPTTLIMRVHQNHIEVNTSSDTQGNPYKAGDKEDLGHGLYCEHVIETKSQLVVPDALADEKWSNNPDIKLGMLSYCGLPLFWPNGETFGTICMLDSKANEYSETYRQLLNTFKDSIEAQLAVVYQQYKLLRLNSELKNRVENRTTDLAQLSFSLTQEIDRRKAAERQVNYQKTHDQGTGFLNRAALEAVVEDTLQSLEHGHQSLIVINVGFSNARSIQTRYGFEAFDEILKEFRKRLGMNDSNYFITGRPSSNDLVLLLWGEDADSKLHNLLDKITNISVGNFYINDTEVHLHSYVGVVQAHRSSSAKQLLQNACYAMLLCKESGEAYSYFCESHTHEGHHHHHH | soluble
MSLGRMFGTDGVRGIANKELTAELAYRLGRAGAYVLTNETHKPKILVGMDTRISGDMLEAALVSGILSVGAEAVCVGIVPTPAVAYLTRKYKADAGVVISASHNPVEYNGIKFFDAKGYKLSDNLEDEIQKIIESDFEGVPLPTGESVGRKVVEESAEEDYIKFAKSTIGTDLKGMKIALDCANGAAYKTAVKTFRELGAQVTVINNDPDGININCNCGSTHPEELMDYVVKKNCDLGLAFDGDADRCLAVDEKGNLIDGDFIMAICGKYLKDKGELHKDVVVVTVMSNMGLFLALDKANIKTVKTKVGDRYVLEEMLKEGYKLGGEQSGHIIFLDYNTTGDGLVTALKICSIVKESRKTLSKLASIMHKLPQVLANAKVPNNKKDIYLEDKEISDEIKKIEEELHGKGRVLIRPSGTEPLVRVMLEGEDQDRLNTLAHGLAELIEKKANEGHHHHHH | soluble
MSLGSQTDGSPAGGWPALNAVNKHLLHQHVLVKGNRTLLSMNKPGGFDCPSCSWPDPKKPHTFEYCENGAKALAWESTKKRVTPEFFARHTVSELATWSDHDLEKQGRIAEPMRYDAASDKYLPVTWDEAFAEIGEELRQLSDPWKLELYTSGRTSNEAAFLYQLFGRLYGMANFPDCSNMCHETTTVALPESIGVGKGTTTLEDFENADAIFIIGQNPGSNSPRMMSELHAAAKRGASIISFNPLREKALVRFASPQDPRDMLSLHGVEISSQYHQVRIGGDMIALQGVCKAVIEADDVARREHLPRVLDVAFIEEHTHGFEQYADYCRQLPWDLIESHSGLTRQAIEDVAAVYRRSERVICCWGMGVTQHKRGGDAVQQIINLLLLRGNIGKLGAGACPVRGHSNVQGDRTMGIYEKAGEPFLASMSKVFGFEASRRKGHAVAETCEALLRGEVEALISMGGNFFRAIPDIDAICPTVSRLKMTVLVNTKLNRSATVHGQKAFLLPCVARSERDLQNGVAQTITVEDSMSIVHGSTGMLEPASKHLISEVAIIAGIAKATLAPNPNVDWDSYVGDYARIRDKIEEVLPEQFYDFNRRILEPGGFRLPNAASERKWDTESGKANFLFTEGIYDEDDTPPGAAHLQLMTIRSHDQFNTTVYSNDDRYRDIFGDRMVVMLNPQDIERLGLKAGDYIEFQTALDLTTPRRAPGFKVIAYDVPPGCCAAYYPETNGLLPLANRDSRSNTPAAKSIPVNLVRMSPEGAQVALEREGHHHHHH | soluble
MSLGSRNGEKDWENASTTSSVASGTEYTGPKLYKEPSAKSNKHIIQNALAHCCLAGKVNEGQKKKILEEMEKSDANNFLILFRDSGCQFRSLYTYCPETEEINKLTGIGPKSITKKMIEGLYKYNSDRKQFSHIPAKTLSASVDAITIHSHLWQTKRPVTPKKLLPTKEGHHHHHH | soluble
MSLGYDVIFVSGVAKARFRRRMRKLVLCITALLLSGCSREFIEKIYDVDYEPTNRFAKNLAELPGQFQKDTAALDALINSFSGNIEKRWGRRELKIAGKNNYVKYIDNYLSRSEVNFTEGRIIVETVSPIDPKAHLRNAIITTLLTPDDPAHVDLFSSKDIELKGQPFLYQQVLDQDGQPIQWSWRANRYADYLIANHLKVKQVDFKKAYYVEIPMVKDQIDIRGYKYASIVRKASRKYDIPEDLIYAIIKTESSFNPYAVSWANAYGLMQVVPKTAGRDVFKLVKNRSGEPSPEYLFNPENNIDTGTAYFYILKNRYLKEVRHPTSLEYSMISAYNGGTGGVLSTFSSDRQRAMRDLNALQPNQVYWALTKKHPNAEARRYLEKVTKFKKEFNAGEGHHHHHH | not soluble
MSLGYLNNVTGYREDLLANRAIVKHGNFALLTPDGLVKNIIPGFENCDATILSTPKLGASFVDYLVTLHQNGGNQQGFGGEGIETFLYVISGNITAKAEGKTFALSEGGYLYCPPGSLMTFVNAQAEDSQIFLYKRCYVPVEGYAPWLVSGNASELERIHYEGMDDVILLDFLPKELGFDMNMHILSFAPGASHGYIETHVQEHGAYILSGQGVYNLDNNWIPVKKGDYIFMGAYSLQAGYGVGRGEAFSYIYSKDCNRDVEIEGGSHHHHHH | soluble
MSLHLARVDRQWPRPLQPLGNTCSMMLIKQFPDISLNDTLFVFALEAEAGDVFTEVNTVFTGIGKVNAAIALTKAIATRRPKLIVNLGSAGSQRHGKGEIVCCNRFVQRDMDVTALGFARYETPLSDTPVVLEHGAAIPGLAVETCGSGDSFEINHGDAPYDVVDMEAYVLALIARGEGIPFVCLKYISDDAGSEAAGDWAVQVHLAAEAFKRVLFSQAEGHHHHHH | soluble
MSLHQRILSEVEGHILSGDWPPGYRIPFEHELTEQYGCSRMTVNKALSELVKRGLIERRRKSGSYVSFPQVQSAVMEIHDVKREVQSLGLDYAYRLGERAVRKMRAGDEGRIDLPVSSRLLDVTCRHFAGGRVFCLEERVINLSAVPEAETETFETAAPGSWLLGKVPWSTAEHRIRAVAASRPTAQALEIAVGAACLVIERRTWSGGVPVTSVLLTYPGDRHELVAEFAPSAPA | not soluble
MSLHRLQKVVRHIAQTEIMPRFLNTPSRRKEDGSMLSEADIAAQTAFAAALPLLIDCPMLGEEMSRQEQSALWEQYSGEKGLWIVDPIDGTNNFVNGLPHFAVSVAFVRNGRAELGVIYNPVSGECFYAERGQGAFLNGTRLPLRLVDKKLNEAIAGVEIKYLRSGKLSSRMSTLAPFGTIRSMGSSTLDWCYLACGRYDVYVHGGQKLWDYAAGALIFEEAGGRLTTLEGDGFWSGEHVFKRSVVAALEPKLFERWVGWIRENQEGHHHHHH | soluble
MSLHSTPAPVASPLPSALDEAARLAVLHGLCLLDSPPDPVFDTIAAMAARMLGTEIALVSLVDEHRQWFKARVGLEAPETPRKHAFCAHALRSDDVLVIPDALLDPRFCNNPLVLGAPHIRFYAGAPLKLRDGHTIGTLCVIGTSPRAGLDAEQRIQLEGLRDLAVLRVENLRSSTYRNGPTGLPNRARFSEDLDAVLLQRTADSAATAIAVDLCGSDYFRDMVKALGWDYADGYVALAYKRLISKLPAGTALYRLDTTTFAFMVTTADPLRLSALCSKISKGFVAPLEHQGIPHTAVASIGAVLLETSYGAADTLRSLTTSVDVAREHCLTWSLYEREGHHHHHH | soluble
MSLHTPLEQQEIRYRKGDIIELTITDHAEKDKCFGKTTEGMGVMVSGILAPGDRVSAQIYKVKSRYLEARAIEVLEASPDRVEPVCPVFGSCGGCKWMHVSYEAQLRYKHKKVTDSLEHIGGFESPDVRPVLAAPDALHYRNKVEFSCSNMRYLLQSEIDSDQLAKPKTFALGFHAPGNFEKVLDLDTCYLAKECMNRVLNVLRDFAIERGLEPYAAKAHEGYLRNLMLRYSERHEQLMVNIVTSWYDKALMQALKERLEAAMPEQQMTLLNNVTTRKNTVATGEQEYVISGDGYVTERLGDLDFRISANSFFQTNTRQAETLYDQIIAVGGITPEDTVYDLYCGTGTITLYLARHCKQAIGIEVVESAVKDAEMNAELNGLSNTVFFQADLKNFHAMQEALEPYAKPRIIVTDPPRAGMHPKALDTMLKLQPERIVYVSCNPDNLARDGKEIAARGYRMTSAQPVDMFPQTNHIETVACFERAEGHHHHHH | soluble
